{"source": "patent US20240368285A1", "about": "(HEFEI TG IMMUNOPHARMA, published 2024)", "key": {"[1]": {"molecular_target": "T1, MICA on human tumor cells (A-375, A549, HCT-15, MDA-MB-231) (human, UniProt Q29983 24-383)", "T1 construct": "whole, on cells", "T1 sequence (looked up)": "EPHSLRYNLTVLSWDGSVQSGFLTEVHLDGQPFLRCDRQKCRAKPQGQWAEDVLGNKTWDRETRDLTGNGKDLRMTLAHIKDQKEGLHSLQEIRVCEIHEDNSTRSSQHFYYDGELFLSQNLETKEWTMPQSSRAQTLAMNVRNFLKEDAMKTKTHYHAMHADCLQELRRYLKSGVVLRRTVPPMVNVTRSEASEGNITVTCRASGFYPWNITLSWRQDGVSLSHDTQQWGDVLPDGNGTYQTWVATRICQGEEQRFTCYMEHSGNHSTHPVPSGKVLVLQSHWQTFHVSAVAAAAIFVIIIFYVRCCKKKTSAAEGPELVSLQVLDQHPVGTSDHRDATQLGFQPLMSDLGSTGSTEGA", "assay": "flow cytometry on HCT-15 cells, Alexa-647 goat anti-human secondary, % binding ratio", "description": "(2) Tumor cells were diluted to a density of 2×10⁶/mL with PBS and added into a 1.5 ml EP tube in a volume of 100 l/tube. 10 l/tube of goat serum was added into the EP tube; and blocking was conducted at 4° C. for 30 min. […] The tube was incubated at 4° C. for 30 min. 1 mL of PBS was added into the EP tube, and centrifugation was conducted 4° C. at a rate of 3,500 rpm for 5 min. The supernatant was removed. Then, the EP tube was washed once with the PBS, and the supernatant was removed after centrifugation. The cells were resuspended with PBS in a volume of 100 l/tube. An Alexa-647 labeled goat anti-human secondary antibody (purchased from Jackson lab) was added into the tube in a volume of 1 l/tube, and the tube was incubated in the dark at 4° C. for 30 min. The tube was washed twice with PBS, and the supernatant was removed after centrifugation. The cells were resuspended with the PBS in a volume of 200 l/tube, and detection was conducted by a flow cytometer. The results are as shown in FIG. 17A and FIG. 17B, FIG. 18A and FIG. 18B, FIG. 19A and FIG. 19B, and FIG. 20A and FIG. 20B."}, "MICA004α3-Fc [2]": {"molecular_target": "T2, MICA004α3-Fc (human)", "T2 construct": "also called MICA*004-Fc; domain α3 of MICA-004 Fc fusion protein", "T2 sequence (chain, as listed by the source limits assumed)": "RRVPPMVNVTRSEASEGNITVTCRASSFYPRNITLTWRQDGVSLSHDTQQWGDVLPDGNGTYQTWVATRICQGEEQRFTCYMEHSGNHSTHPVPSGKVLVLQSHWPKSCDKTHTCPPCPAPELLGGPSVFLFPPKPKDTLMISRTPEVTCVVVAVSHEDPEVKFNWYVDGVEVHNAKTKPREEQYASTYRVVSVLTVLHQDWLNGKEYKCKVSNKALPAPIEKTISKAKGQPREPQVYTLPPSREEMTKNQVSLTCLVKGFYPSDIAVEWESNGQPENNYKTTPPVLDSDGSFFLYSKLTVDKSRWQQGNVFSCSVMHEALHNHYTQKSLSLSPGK", "assay": "ELISA on coated MICA*004 α3-Fc (1 µg/ml), HRP anti-human Fab secondary, OD450"}, "MICA002α3-Fc [3]": {"molecular_target": "T3, MICA002α3-Fc (human)", "T3 construct": "Produced in the Applicant's laboratory; also called MICA*002-Fc; domain α3 of MICA-002 Fc fusion protein", "T3 sequence (chain, as listed by the source limits assumed)": "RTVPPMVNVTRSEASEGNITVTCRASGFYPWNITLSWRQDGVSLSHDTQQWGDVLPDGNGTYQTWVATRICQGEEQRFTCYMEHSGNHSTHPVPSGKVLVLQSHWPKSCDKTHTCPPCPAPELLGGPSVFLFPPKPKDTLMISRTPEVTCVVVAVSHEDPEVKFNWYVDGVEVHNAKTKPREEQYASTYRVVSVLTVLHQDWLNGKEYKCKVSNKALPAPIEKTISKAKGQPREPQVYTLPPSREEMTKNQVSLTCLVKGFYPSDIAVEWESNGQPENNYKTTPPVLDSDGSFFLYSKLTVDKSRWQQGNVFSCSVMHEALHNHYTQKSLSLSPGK", "assay": "ELISA on coated MICA*002 α3-Fc (1 µg/ml), HRP anti-human Fab secondary, OD450", "description": "(§1) After the antibodies were added, signal intensity was used for judging the binding characteristics of the antibodies and MICA and MICB.\n(§2) The fusion proteins (produced in the Applicant's laboratory; an amino acid sequence of MICA002α3-Fc is as set forth in SEQ ID NO: 22; an amino acid sequence of MICA005α3-Fc is as set forth in SEQ ID NO: 24; an amino acid sequence of MICA008α3-Fc is as set forth in SEQ ID NO: 25; an amino acid sequence of MICA004α3-Fc is as set forth in SEQ ID NO: 23; an amino acid sequence of MICB001α3-Fc is as set forth in SEQ ID NO: 26; and an amino acid sequence of MICB005α3-Fc is as set forth in SEQ ID NO: 27) were diluted to a concentration of 1 μg/ml with PBS and then added into a 96-well plate in a volume of 100 μl/well. The plate was placed at 4° C. overnight. The PBS in the 96-well plate was removed by sucking. After the plate was washed with PBST (that is, PBS having a pH value of 7.2 included 0.1 volume % of Tween 20) for 6 times, PBS containing 10% of BSA was added in a volume of 200 μl/well. The plate was incubated at 37° C. for 2 hours for blocking. The blocking solution was removed. […]"}, "MICA002α3-Fc [4]": {"molecular_target": "T3, MICA002α3-Fc", "assay": "ELISA on coated MICA*002 α3-Fc (1 µg/ml), HRP anti-human Fab secondary, OD450", "remark": "listed apart in the source"}, "MICA004α3-Fc [5]": {"molecular_target": "T2, MICA004α3-Fc", "assay": "ELISA on coated MICA*004 α3-Fc (1 µg/ml), HRP anti-human Fab secondary, OD450", "description": "as §1, §2", "remark": "listed apart in the source"}}, "note": "Like-named read-outs stand apart in the source and are kept apart here.", "data": [{"binder": "affinity maturation antibody h5A1002 (antibody, V domains shown, Human IgG1, kappa; also called h5A1002-hIgG1) VH: QVQLQESGPGLVKPSETLSLTCTVSGFSLTTYGGHWIRQPPGKGLEWIGMIWTDGWTDYNAAFISRVTISVDTSKNQFSLKLSSVTAADTAVYYCARKGHGYYYAMDYWGQGTLVTVSS VL: EIVLTQSPGTLSLSPGERATLSCTASSSVSSSYLHWYQQKPGQAPRLLIYSTSNLISGIPDRFSGSGSGTDFTLTISRLEPEDFAVYYCHQYHRSPFTFGQGTKLEIKR", "values": [{"measurement": "EC50 (read off the curve)", "setting": "[1]", "result": "~0.1", "unit": "µg/mL"}, {"measurement": "EC50 (read off the curve)", "setting": "MICA004α3-Fc [2]", "result": "~0.04", "unit": "µg/mL"}, {"measurement": "EC50 (read off the curve)", "setting": "MICA002α3-Fc [3]", "result": "~0.06", "unit": "µg/mL"}, {"measurement": "EC50 (read off the curve)", "setting": "MICA002α3-Fc [4]", "result": "~0.04", "unit": "µg/mL"}, {"measurement": "EC50 (read off the curve)", "setting": "MICA004α3-Fc [5]", "result": "~0.07", "unit": "µg/mL"}]}]}
